From US20230159961A1, “BIOSYNTHESIS OF CHEMICALLY DIVERSIFIED NON-NATURAL TERPENE PRODUCTS” (Board of Trustees of Michigan State University, priority 2019, published 2023)
Blank lines part the entries; values can stand above or below the molecule they belong to.

What was measured:
[1] = system: Coleus forskohlii CfTPS2 and Salvia sclarea SsSCS; test: coupled class II / class I in vitro assay with methyl-GGDP (C21) substrate; format: biochemical; settings: CfTPS2 and SsSCS used together; product structure similar to sclareol (FIG. 10)
Procedure: A typical high-throughput in vitro diTPS assay in lml contained 5 μg substrate, 200 μg purified enzyme (class II plus class I for labdanoid-type diterpenes, or class I for irregular diterpenes), and 10mM buffer with magnesium. Reactions are carried out for 1 hour at 16° C., followed by vortexing with an equal volume of hexane to extract the products into the organic phase, prior to removal for GC/MS analysis.
Reactions leading to novel compounds can be scaled up for structural elucidation. The scale-up procedure involved the same composition. However, in coupled assays of pairs of diTPS, the class II enzyme may be pre-incubated with substrate for two hours, before adding the class I diTPS.
Enzymes Coleus forskohlii CfTPS2 (SEQ ID NO:69) and Salvia sclarea SsSCS (SEQ ID NO:61) were coupled in an in vitro assay to ascertain whether the synthetic unnatural methyl-GGDP (C21) substrate can efficiently yield the corresponding C21 methyl-diterpene.

[2] = system: DgTPS1 (casbene synthase); test: in vitro diTPS assay: casbene synthase DgTPS1 reacted with unGGPP, products by GC/MS; format: biochemical, Daphne genkwa; settings: product mass consistent with a methyl-derivative of casbene
Procedure: A conserved irregular, macrocyclic structure is consistent with the fragmentation pattern of the major fragments of casbene (FIG. 5C-5D).
To assess substrate tolerance of class II diTPS, substrates are screened against a panel of twenty-five enzymes. Recombinant diTPS were expressed heterologously in E. coli, purified, and reconstituted in in vitro assays with the substrate to be tested. The products from the enzymatic action on the substrate were analyzed structural elucidation and downstream functionalization.
In particular, pET28b+plasmids containing N-terminally truncated diTPS variants (having the plastidial targeting signal removed to generate pseudomature enzymes) are transformed into E. coli BL-21DE3-C41 OverExpress cells. Cultures are grown at 37° C. and 180 rpm until the optical density at 600 nm reached 0.3 to 0.4. Cultures are cooled to 16° C., and expression is induced at an optical density at 600 nm of approximately 0.6 with 0.2 mM isopropylthiogalactoside. Cells are collected and lysed before purification of the His6-tagged enzymes with Ni-NTA columns.
A typical high-throughput in vitro diTPS assay in lml contained 5 μg substrate, 200 μg purified enzyme (class II plus class I for labdanoid-type diterpenes, or class I for irregular diterpenes), and 10mM buffer with magnesium. […]

[3] = system: class I labdane-type diTPS; test: class I labdane-type diTPS and tested substrates converted (Table 2); format: biochemical; settings: decalin-core diphosphate substrates that the enzyme converted, enzymes functionally expressed
Text: Instead of accepting the acyclic GGPP, class I enzymes can use structurally diverse decalin-core diphosphate intermediates generated by class II enzymes. At this stage, additional cyclizations, double-bond-, hydride and alkyl shifts can occur, followed by either proton abstraction or quenching of the final carbocation through a water molecule.
All enzymes in Table 2 were functionally expressed. Microbial sequences were expressed as synthetic variants, expression optimized for E. coli. See also FIG. 7.

- product formation in coupled enzyme assay [1]: new methyl-diterpene product
Molecule: CC(C)=CCC/C(C)=C/CC/C(C)=C/CC/C(C)=C(\C)COP(=O)(O)OP(=O)(O)O [methyl-GGDP (C21)]

Molecule: CC(C)=CCC/C(C)=C/CC/C(C)=C/CC/C(C)=C(\C)COP(=O)(O)OP(=O)(O)O [unGGPP]
- conversion of substrate to product, detected by gas chromatography / GC-MS [2]: novel product with a shifted retention time

B1: ArTPS3 (protein)
chain: MSLSFTIKVTPFSGQRVHSSTESFPIQQFPTITTKSAMAVKCSSLSTATVSFQDFVGKIRDTINGKVDNSPAATTIHPADIPSNLCVVDTLQRLGVDRYFQSEIDSVLNDTYRFWQQKGEDIFTDVACRAMAFRLLRVKGYEVSSDELASYAEQEHVNLQPSDITTVIELYRASQTRLYEDEGNLEKLHTWTSNFLKQQLQSETISDEKLHKQVEYYLKNYHGILDRAGVRQSLDLYDINQYQNLKSTDRFPTLSNEDLLEFAKQDFNFCQAQHQKELQQLQRWYADCKLDTLTYGRDVVRVASFLTAAIFGEPEFSDARLAFAKHIILVTRIDDFFDHGGSIEESYKILDLVKEWEDKPAEEYPSKEVEILFTAVYNTVNDLAEMAYIEQGRSIKPLLIKLWVEILTSFKKELDSWTEDTELTLEEYLASSWVSIGCRICSLNSLQFLGITLSEEMLSSEECMELCRHVSSVDRLLNDVQTFEKERLENTINSVSLQLAEAQREGRTITEEEAMSKIKDLADYHRRQLMQMVYKDGTIFPRQCKDVFLRVCRIGYYLYASGDEFTTPQQMMGDMKSLVYEPLNTSSS
modifications: Ajuga reptans
- Substrate (tested substrates converted) [3]: PgPP, (+)-CPP, (+)-8-LPP, ent-CPP

B2: KgTPS2 (protein, listed as Kitasatospora griseola)
chain: MPDAIEFEHEGRRNPNSAEAESAYSSIIAALDLQESDYAVISGHSRIVGAAALVYPDADAETLLAASLWTACLIVNDDRWDYVQEDGGRLAPGEWFDGVTEVVDTWRTAGPRLPDPFFELVRTTMSRLDAALGAEAADEIGHEIKRAITAMKWEGVWNEYTKKTSLATYLSFRRGYCTMDVQVVLDKWINGGRSFAALRDDPVRRAIDDVVVRFGCLSNDYYSWGREKKAVDKSNAVRILMDHAGYDESTALAHVRDDCVQAITDLDCIEESIKRSGHLGSHAQELLDYLACHRPLIYAAATWPTETNRYR
- Substrate (tested substrates converted) [3]: ent-, syn-, (+)-CPP, (+)-8-LPP, ent-8-LPP, KPP, 9-LPP

B3: SsSCS (protein, listed as Salvia sclarea)
chain: MSLAFNVGVTPFSGQRVGSRKEKFPVQGFPVTTPNRSRLIVNCSLTTIDFMAKMKENFKREDDKFPTTTTLRSEDIPSNLCIIDTLQRLGVDQFFQYEINTILDNTFRLWQEKHKVIYGNVTTHAMAFRLLRVKGYEVSSEELAPYGNQEAVSQQTNDLPMIIELYRAANERIYEEERSLEKILAWTTIFLNKQVQDNSIPDKKLHKLVEFYLRNYKGITIRLGARRNLELYDMTYYQALKSTNRFSNLCNEDFLVFAKQDFDIHEAQNQKGLQQLQRWYADCRLDTLNFGRDVVIIANYLASLIIGDHAFDYVRLAFAKTSVLVTIMDDFFDCHGSSQECDKIIELVKEWKENPDAEYGSEELEILFMALYNTVNELAERARVEQGRSVKEFLVKLWVEILSAFKIELDTWSNGTQQSFDEYISSSWLSNGSRLTGLLTMQFVGVKLSDEMLMSEECTDLARHVCMVGRLLNDVCSSEREREENIAGKSYSILLATEKDGRKVSEDEAIAEINEMVEYHWRKVLQIVYKKESILPRRCKDVFLEMAKGTFYAYGINDELTSPQQSKEDMKSFVF
- Substrate (tested substrates converted) [3]: ent-, syn-, (+)-CPP, (+)-8-LPP, ent-8-LPP, KPP, 9-LPP
